The results in this text go back to patent US20180072772A1 (CALIFORNIA INSTITUTE OF TECHNOLOGY, published 2018).

In assay [1] the target is E17K GST-PH Domain (Homo sapiens (Human)) (UniProt P31749). In words: ELISA, biotinylated ligand on streptavidin plate, GST-PH Domain titrated, anti-GST detection. Background: An ELISA detects its analyte on a solid surface through an enzyme-linked reagent.
Assay [2] has the same target. Put plainly: ELISA: biotinylated triligand candidate on streptavidin plate, GST-PH Domain titrated, anti-GST-HRP detection.
Assay [3] addresses T1, GFP-tagged E17K PH Domain protein (Homo sapiens (Human), UniProt P31749 1-124).
T1 construct: Cloned from pUNO-hAKT1 and mutated; also called GFP-E17K PHD; E17K mutant GFP-PH domain; not shown: GFP of the TOPO C-terminal GFP mammalian vector
T1 chain: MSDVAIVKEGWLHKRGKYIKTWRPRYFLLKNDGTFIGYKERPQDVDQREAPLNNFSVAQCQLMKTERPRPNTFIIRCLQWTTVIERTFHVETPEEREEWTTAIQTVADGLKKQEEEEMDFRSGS
Put plainly: confocal imaging of HEK-293T cells expressing GFP-PH Domain.

Assay [4] concerns the target full length Akt1E17K (Homo sapiens (Human)) (UniProt P31749). In words: fluorescence polarization in solution, full-length Akt1 titrated. Background: In fluorescence polarisation assays a small probe gives low polarisation when free and higher when bound to something large.
The target in assay [5] is 6His-PEG5-Mut 33mer Fragment (E17K 33-mer epitope without alkyne click handle). In words: fluorescence polarization, in solution.
Chain of 6His-PEG5-Mut 33mer Fragment (E17K 33-mer epitope without alkyne click handle) (peptide, as listed by the source E17K E17K): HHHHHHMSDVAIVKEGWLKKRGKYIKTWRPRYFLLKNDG
Assay [6] addresses 6His-PEG5-WT 33mer Fragment (wildtype 33-mer epitope without alkyne click handle). In words: fluorescence polarization, in solution.
For assay [7], the target named is full length Akt1E17K (Homo sapiens (Human)) (UniProt P31749). In words: fluorescence polarization, in solution.
Assay [8] has the same target. Put plainly: fluorescence polarization KD values compared.

Primed or numbered codes have the meaning given here. Where no end group is shown, it is not given here. [ ]: non-standard residue; d: D form. The star is where a group is joined. Biotin = O=C1N[C@H]2[C@H](CS[C@H]2CCCCC(=O)*)N1; Lys(N3) = [N-]=[N+]=NCCCC[C@H](N)C(=O)O; dPra = C#CC[C@@H](N)C(=O)O; PEG5″ = not defined here; PEG5′ = PEG5 linker

Chain of 6His-PEG5-WT 33mer Fragment (wildtype 33-mer epitope without alkyne click handle) (peptide, as listed by the source): as the sequence (peptide, as listed by the source E17K E17K) above, with K23E counted along it

B1: Biotin-PEG5-ivdae(SEQ ID NO: 78)-yleaf(SEQ ID NO: 43)-yksy(SEQ ID NO: 76) triligand (peptide)
peptide 1: [dI][dV][dD][dA][dE]
peptide 2: [Lys(N3)][dY][dL][dE][dA][dF][dPra]
peptide 3: [dY][dK][dS][dY]
modifications: not fully specified (N-terminus, C-terminus); also: triazole to a chain's N/C-terminus, triazole to a chain's N/C-terminus
A word on the EC50: it is the concentration needed to bring the measured effect to its halfway point. On to B1, for which, in assay [1], the EC50 was found to be 45 nM.

B2: triligand candidate iryrn (iryrn-yleaf-yksy) (peptide)
peptide 1: [dI][dR][dY][dR][dN]
peptide 2: [Lys(N3)][dY][dL][dE][dA][dF][dPra]
peptide 3: [dY][dK][dS][dY]
modifications: not fully specified (N-terminus, C-terminus); also: triazole to a chain's N/C-terminus, triazole to a chain's N/C-terminus
For orientation: EC50 (read off the curve) means the concentration at which the effect is half-maximal. Regarding B2, the half-maximal effective concentration (EC50 (read off the curve)) in assay [2] came to 10 nM.

B3: PEG5-TAT-Cy5 (peptide)
peptide: [PEG5″]YGRKKRRQRR-Cy5
notes: Control without the yleaf anchor; also called blank of PEG5-TAT-Cy5; control with no anchor ligand peptide
With B3, the binding result in assay [3] is on record as “no binding (tested: 50 nM)”.

B4: triligand 9 (ivdae-yleaf-yksy, form used in fluorescence polarization) (peptide)
peptide 1: [dI][dV][dD][dA][dE]
peptide 2: [dY][dL][dE][dA][dF]
peptide 3: [dY][dK][dS][dY]
modifications: not fully specified (N-terminus, C-terminus); also: fluorescence polarization label, not described, triazole to a chain's N/C-terminus, triazole to a chain's N/C-terminus
B4: the half-maximal effective concentration (EC50 (read off the curve)) in assay [4] was found to be 100 nM. As to {Biotin-PEG5′}-[dY][dL][dE][dA][dF] (not fully specified (C-terminus)) [Biotin-PEG5-yleaf(SEQ ID NO: 43)-Pra anchor ligand], in assay [1], the concentration for a half-maximal effect (EC50) was 61 nM.

For orientation: Kd means the equilibrium constant for the complex coming apart. High values mean weaker binding, low ones tighter binding. For the molecule [dY][dL][dE][dA][dF] (also: fluorescence polarization label not described) [yleaf (SEQ ID NO: 43) anchor ligand 4], the values for the Kd in assay [5], in assay [6] and in assay [7] were 328 nM, 2800 nM and 54 nM, respectively. This molecule also registered a selectivity for E17K relative to WT (fold (E17K:WT)) in assay [8] of 10.

B5: yleaf(SEQ ID NO: 43)-Tz-yksy(SEQ ID NO: 76) biligand, N-terminal PEG5-biotin (peptide)
peptide 1: [dY][dL][dE][dA][dF]
peptide 2: [dY][dK][dS][dY]
modifications: not fully specified (N-terminus, C-terminus, bridges); also: triazole to a chain's N/C-terminus
In assay [1], B5 registered an EC50 of 19 nM.
